Experimental data reported in patent US9840539B2, “High affinity digoxigenin binding proteins” (UNIVERSITY OF WASHINGTON THROUGH ITS CENTER FOR …, priority 2013, dated 2017).
Entries after “also recorded” stand apart in the source; their conditions may differ. Read-outs that look alike come from different tables or passages of the source.

Tests used:
[1] = Yeast surface display flow cytometry binding assay, DIG-RNase-biotin and SAPE; conditions: for compensated mean binding (PE) signal on yeast: 2.7 μM DIG-RNase-biotin pre-incubated with SAPE
Text: (§1) DIG10.1a-derived library DNA was sequenced in paired-end mode on an Illumina MiSeq.
(§2) General experimental methods. Detailed procedures for the syntheses of DIG-BSA-biotin, DIG-RNase-biotin, DIG-PEG3-biotin, and DIG-PEG3-Alexa488, as well as protein expression, purification, and crystallization, cloning, and mutagenesis methods are given in Supplementary Methods. Details about fluorescence polarization binding assays, gel filtration analysis, and protein stability measurements are also provided in Supplementary Methods. Yeast surface display. Designed proteins were tested for binding using yeast-surface display^40. […] DIG binding was assessed by quantifying the phycoerythrin (PE) fluorescence of the displaying yeast population following incubation with DIG-BSA-biotin, DIG-RNase-biotin, or DIG-PEG3-biotin, and streptavidin-phycoerythrin (SAPE). In a typical experiment using DIG-BSA-biotin or DIG-RNase-biotin, cells were resuspended in a premixed solution of PBSF (PBS+1 g/L of BSA) containing a 1:100 dilution of anti-cmyc FITC, […] DIG-BSA-biotin or DIG-RNase biotin, and 664 nM SAPE for 2-4 hr incubation at 4° C. Cellular fluorescence was monitored on an Accuri C6 flow cytometer using a 488 nm laser for excitation and a 575 nm band pass filter for emission. Phycoerythrin fluorescence was compensated to minimize bleed-over contributions from the FITC channel. Competition assays with free digoxigenin were performed as above except that between 750 μM and 1.5 mM of digoxigenin was added to each labeling reaction mixture. Full details are given in Supplementary Methods.
(§3) Yeast surface display assays. Designed proteins were tested for binding using yeast-surface display^23. Designs DIG1-17/pET29FLAG, DigA16/pET29FLAG, and 3hk4/pET29FLAG were subcloned into the NdeI/XhoI cloning sites of pETCON^24. Designs and control proteins in pETCON were transformed into EBY100 cells using lithium acetate and polyethylene glycol^25 with dH2O instead of single stranded carrier DNA and were plated on selective media (C -ura -trp). Freshly transformed cells were inoculated into 1 mL of SDCAA media^23 and grown at 30° C., 200 rpm. After ˜12 hrs, 1e7 cells were collected by centrifugation at 1,700×g for 3 min and resuspended in 1 mL of SGCAA media to induce protein expression. Following induction for 24-48 hrs at 18° C., 4e6 cells were collected by centrifugation, and washed twice by incubation with PBSF (PBS supplemented with […]) for 10 min at room temperature
(§4) DIG binding was assessed by quantifying the phycoerythrin (PE) fluorescence of the displaying yeast population following incubation with DIG-BSA-biotin, DIG-RNase-biotin, or DIG-PEG3-biotin, and streptavidin-phycoerythrin (SAPE; Invitrogen, Carlsbad, Calif.). In a typical experiment using DIG-BSA-biotin or DIG-RNase-biotin. 4e6 cells were resuspended in 50 μL of a premixed solution of PBSF containing a 1:100 dilution of anti-cmyc FITC, 2.66 μM DIG-BSA-biotin or DIG-RNase biotin, and 664 nM SAPE. Following a 2-4 hr incubation at 4° C. in the dark on a rotator, cells were collected by centrifugation at 1,700×g for 3 min and washed with 200 μL of PBSF at 4° C. Cell pellets were resuspended in 200 μL of ice-cold PBSF immediately before use. Cellular fluorescence was monitored on an Accuri C6 flow cytometer using a 488 nm laser for excitation and a 575 nm band pass filter for emission. Phycoerythrin fluorescence was compensated to minimize bleed-over contributions from the FITC fluorescence channel. […]

[2] = Fluorescence polarization equilibrium binding assay with purified protein; conditions: for affinity for DIG-PEG3-Alexa488 by fluorescence polarization (in words): purified protein in solution
Experimental: Proteins were expressed in E. coli Rosetta 2 (DE3) cells with a C-terminal TEV protease cleavable His6 tag for biochemical assays. For crystallographic analysis of DIG10 variants, a 12-amino acid structurally disordered C-terminus deriving from the scaffold protein 1z1s was replaced directly with a His6 tag. Binding affinities were determined by equilibrium fluorescence polarization^30 on a SpectraMax M5e microplate reader by monitoring the anisotropy of DIG-conjugated Alexa488 as a function of protein concentration. Equilibrium fluorescence polarization competition assays were performed by examining the effect of increasing concentrations of unlabeled DIG, digitoxigenin, progesterone, and β-estradiol on the anisotropy of designed protein-DIG-conjugated Alexa488 complex.
Fluorescence polarization binding assays. Fluorescence polarization-based affinity measurements of designs and their evolved variants were performed as described^46 using Alexa488-conjugated DIG (DIG-PEG3-Alexa488). Fluorescence anisotropy (r) was measured in 96-well plate format on a SpectraMax M5e microplate reader (Molecular Devices) with λex=485 nM and λem=538 nM using a 515 nm emission cutoff filter. Fluorescence polarization equilibrium competition binding assays were used to determine the binding affinities of DIG10.3 and its variants for unlabeled digoxigenin, digitoxigenin, progesterone, β-estradiol, and digoxin. The inhibition constant for each protein-ligand interaction, Ki, was calculated from the measured total unlabeled ligand producing 50% binding signal inhibition (I50) and the Kd of the protein-label interaction according to a model accounting for receptor-depletion conditions^46.
Fluorescence polarization equilibrium binding assays. Fluorescence polarization-based affinity measurements of designs and their evolved variants were performed as noted previously^47 using Alexa488-conjugated DIG (DIG-PEG3-Alexa488). In a typical experiment, the concentration of DIG-PEG3-Alexa488 was fixed below the Kd of the interaction being monitored and the effect of increasing concentrations of protein on the fluorescence anisotropy of Alexa488 was determined. Fluorescence anisotropy (r) was measured in 96-well plate format on a SpectraMax M5e microplate reader (Molecular Devices) with λex=485 nM and λem=538 nM using a 515 nm emission cutoff filter. In all experiments, PBS (pH 7.4) was used as the buffer system and the temperature was 25° C. DIG-PEG3-Alexa488 solutions were prepared from a 1 mM stock in DMSO. Equilibrium dissociation constants (Kd) were determined by fitting plots of the anisotropy averaged over a period of 20 to 40 min after reaction initiation versus protein concentration as described previously^47. […]

[3] = Yeast surface display flow cytometry binding assay, DIG-BSA-biotin and SAPE; conditions: for compensated mean binding (PE) signal on yeast: 2.7 μM DIG-BSA-biotin pre-incubated with SAPE; for binding in presence of unlabeled DIG competitor: DIG-BSA or DIG-RNase label, ˜1 mM unlabeled DIG
Text: as §1, §2, §3, §4

[4] = Circular dichroism spectroscopy, temperature melting; assay type: physicochemical
Experimental: Circular dichroism spectroscopy. Circular dichroism spectra were collected on an Aviv 62A DS spectrometer. Samples were prepared in PBS. Fixed-temperature scans were conducted at 25° C. All proteins were stable <°60 C.

Row | Molecule | compensated mean binding (PE) signal on yeast [1] | binding (PE) signal in presence of unlabeled DIG competitor ([1]; 2.7 μM DIG-RNase-biotin, 790 μM unlabeled DIG) | affinity for DIG-PEG3-Alexa488 by fluorescence polarization (in words) [2] | compensated mean binding (PE) signal on yeast [3] | binding in presence of unlabeled DIG competitor [3] | thermal stability by CD temperature melting ([4]; PBS) | binding (PE) signal, stringent multistep labeling ([1]; 5 pM DIG-RNase, then SAPE) | thermal stability by CD temperature melting [4] | increase of binding affinity relative to DIG10 ([2]; after one round of mutagenesis and selections)
1 | DIG5: computationally designed digoxigenin binding polypeptide from scaffold 1z1s, SEQ ID NO: 10 (protein, (130)..(141) amino acids are optionally absent) MNAKEILVHSLRLLENGDARGWCDLFHPEGVLEFPYAPPGWKTRFEGRETIWAHMRLHPEHVTVRFTDVQFYETADPDLAIGEYHGDGVVTVSGGKYAADFITVLRTRDGQILLYRVFWNPLRALEAAGGVEAAAKIVQGA | strong binding signals | reduced to that of the negative control ZZ(−) | low to mid micromolar range | slightly above background levels | reduced to background levels | – | – | – | –
2 | DIG10: computationally designed digoxigenin binding polypeptide from scaffold 1z1s, SEQ ID NO: 12 (protein, (130)..(141) amino acids are optionally absent) MNAKEIVVHSLRLLENGDARGWCDLFHPEGVLEYPYAPPGHKTRFEGRETIWAHMRLFPEYVTVRFTDVQFYETADPDLAIGEFHGDGVHTVSGGKLAADYISVLRTRDGQILLYRVFFNPLRVLEALGGVEAAAKIVQGA | strong binding signals | – | low to mid micromolar range | strong binding signals | reduced to background levels | – | – | – | –
3 | 1z1s: scaffold, hypothetical protein of unknown function from Pseudomonas aeruginosa, SEQ ID NO: 24 (protein) MNAKEILVHSLRLLENGDARGWCDLFHPEGVLEFPYAPPGWKTRFEGRETIWAHMRLFPEHLTVRFTDVQFYETADPDLAIGEFHGDGVATVSGGKLAQDYISVLRTRDGQILLYRDFWNPLRHLEALGGVEAAAKIVQGA | does not show a binding signal | – | does not bind | does not bind to either label | – | stable at temperatures below 60 °C | – | – | –
4 | DIG10.1a: affinity matured DIG10 variant with S10A, V62M, V64I, V117L, A127P; SEQ ID NO: 13 (protein, (130)..(141) amino acids are optionally absent) MNAKEIVVHALRLLENGDARGWCDLFHPEGVLEYPYAPPGHKTRFEGRETIWAHMRLFPEYMTIRFTDVQFYETADPDLAIGEFHGDGVHTVSGGKLAADYISVLRTRDGQILLYRLFFNPLRVLEPLGGVEAAAKIVQGA | – | – | – | – | – | – | slightly higher signal; also recorded: strong binding signals | stable at temperatures below 60 °C | 75 fold
5 | DIG10.2: DIG10.1a variant with A37P and H41Y, SEQ ID NO: 14 (protein, (130)..(141) amino acids are optionally absent) MNAKEIVVHALRLLENGDARGWCDLFHPEGVLEYPYPPPGYKTRFEGRETIWAHMRLFPEYMTIRFTDVQFYETADPDLAIGEFHGDGVHTVSGGKLAADYISVLRTRDGQILLYRLFFNPLRVLEPLGGVEAAAKIVQGA | – | – | – | – | – | – | – | stable at temperatures below 60 °C | –
